# Measurements from patent publication US20250092424A1 (University of Washington, published 2025).
# T1: design #8 (v-SNARE-like protein, v-SP; MPNN-redesigned VAMP2), SEQ ID NO: 8
# T1 chain: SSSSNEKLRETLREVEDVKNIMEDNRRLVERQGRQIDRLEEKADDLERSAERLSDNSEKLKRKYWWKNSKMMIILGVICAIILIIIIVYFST
# B1: design #94 (single-chain t-SNARE-like protein, sc-t-SP), SEQ ID NO: 94 (designed binder)
# chain: SEREKEIDEGLDRVSEIVKELKKMAEEMRRMIEEQGRRIERIEEKAEEAKEKIEEANERAEKLLKDPGGSGGSEELKKLEKEGEKLKELVEELDREIKELKEGMERLREMFEEAAKLSEEALEIMRRTRKLSEEELEEAKQKAKEQEKEKALKEKGGSGGSGGSEKVKRELAQIEERHQQILELEEKIKELLEMFKELSEKIEEQGQKIDRIEDKVSKAKEHVEKGVEDTKKAVKYQSKARRKKIMIIICCVILGIVIASTVGGIFA
# Target: T1, design #8 (v-SNARE-like protein, v-SP; …)
# Assay: cell-based or functional assay
binder,measurement,value
B1,"cell-cell fusion assay (reporter luciferase), fold over parental SNARE complex",10 fold
